This passage reports abundance fitness results from the Human Domainome abundance scans (Beltran et al. 2025).

± gives the uncertainty stated by the source.

First the molecules themselves.
B1: E3 ubiquitin-protein ligase TRIM36, residues 208 to 252; numbered along this chain, Q9NQ86 (parent)
chain: KILMCPEHETERINMYCELCRRPVCHLCKLGGNHANHRVTTMSSA

In this data set the parent is B1. Description: abundance fitness (aPCA) (normalised: wild type 0, dead -1); higher = more abundant; growth selection in yeast, the domain comes from the species named. The following applies: Homo sapiens.
For P23C, the abundance fitness is -0.2 ± 0.092. For T41V, the abundance fitness is -0.084 ± 0.046. As for T41C, the figure is -0.112 ± 0.066; as for T41G, 0.003 ± 0.043. As for T41W, the abundance fitness was -0.249 ± 0.053.

On to T41S, for which the abundance fitness is -0.043 ± 0.056. As for T41M, the abundance fitness was -0.142 ± 0.083.

Turning to T41E, the abundance fitness turned out to be 0.071 ± 0.058. In the case of G31P, the abundance fitness was -0.285 ± 0.051.

Consider G31W, for which the abundance fitness is -0.438 ± 0.057. As for G31D, the figure is -0.109 ± 0.079; as for G31L, -0.259 ± 0.049; as for G31E, -0.111 ± 0.063. As for P6Y, the abundance fitness was -0.228 ± 0.067. As for P6H, the figure is -0.108 ± 0.095; as for P6V, -0.069 ± 0.07. Under P6I stands -0.219 ± 0.084; under P6M, -0.224 ± 0.066. As for P6A, the figure is -0.072 ± 0.062. P6R: the abundance fitness is -0.145 ± 0.049.

In the case of P6E, the abundance fitness is -0.016 ± 0.052. As for S44F, the figure is -0.263 ± 0.085; as for S44C, -0.208 ± 0.06.

Consider S44K, for which the abundance fitness is -0.212 ± 0.061. Under S44R stands -0.1 ± 0.05; under S44H, -0.119 ± 0.067. Under S44W stands -0.274 ± 0.073; under C28R, -0.637 ± 0.052; under C28T, -0.777 ± 0.13.

In the case of C28Q, the abundance fitness is -0.399 ± 0.068.

As to C28L, the abundance fitness was -0.826 ± 0.06.

Take C28M: the abundance fitness is -0.723 ± 0.13. As for C28Y, the figure is -0.904 ± 0.27; as for C28D, 0.302 ± 0.27; as for C28E, -0.275 ± 0.057. Under H34S stands -0.318 ± 0.054; under H34Y, -0.562 ± 0.072; under H34P, -0.391 ± 0.078. As for H34C, the figure is 0.033 ± 0.06; as for H34R, -0.541 ± 0.048; as for H34F, -0.614 ± 0.19. Consider H34T, for which the abundance fitness is -0.338 ± 0.063. Under C25I stands -0.814 ± 0.1; under C25V, -0.854 ± 0.059. Under C25M stands -0.618 ± 0.1; under C25L, -0.81 ± 0.059. As for C25D, the figure is -0.553 ± 0.11. As to C25R, the abundance fitness was -0.729 ± 0.054.

Regarding C25F, the abundance fitness is -0.752 ± 0.23.

Turning to E7S, the abundance fitness is -0.103 ± 0.056. As for E7P, the figure is -0.783 ± 0.086; as for E7C, -0.209 ± 0.067. Consider E7R, for which the abundance fitness was -0.104 ± 0.045. In the case of E7N, the abundance fitness is -0.169 ± 0.099. As for E7H, the abundance fitness was found to be 0.01 ± 0.13. Under E7Q stands -0.041 ± 0.058.

E7F: the abundance fitness is -0.129 ± 0.071. Under E7W stands -0.315 ± 0.065; under E7K, -0.085 ± 0.06. M15E: the abundance fitness was -0.024 ± 0.13.

Consider M15A, for which the abundance fitness was -0.166 ± 0.18. Under V39C stands -0.079 ± 0.071.

Consider V39I, for which the abundance fitness is -0.149 ± 0.24. Under V39M stands 0.028 ± 0.072. Under V39P stands -0.005 ± 0.053; under V39A, 0.079 ± 0.048; under V39N, 0.057 ± 0.097. Under V39W stands -0.138 ± 0.052; under V39Q, 0.008 ± 0.059; under V39H, -0.023 ± 0.088. For the variant E9Q, the abundance fitness is -0.062 ± 0.073.

In the case of E9D, the abundance fitness was 0.008 ± 0.075. On to E9I, for which the abundance fitness was -0.042 ± 0.069. Take E9R: the abundance fitness was -0.072 ± 0.044. Consider E9G, for which the abundance fitness is 0.008 ± 0.045. As to R12L, the abundance fitness was -0.034 ± 0.071. As for R12G, the figure is -0.057 ± 0.061; as for R12A, -0.258 ± 0.12; as for M4S, -0.203 ± 0.049. Under M4L stands -0.187 ± 0.062; under M4F, 0.188 ± 0.12; under M4V, -0.077 ± 0.065. Under M4H stands -0.133 ± 0.057.

Regarding A35W, the abundance fitness is -0.309 ± 0.053.
